Biological target: specific cell surface receptors on mouse embryo fibroblasts

B1: mouse β-galactoside binding protein (GBP), natural or recombinant, complexed or non-complexed form not told (ligand)
chain: ACGLVASNLNLKPGECLKVRGEVASDAKSFVLNLGKDSNNLCLHFNPRFNAHGDANTIVCNTKEDGTWGTEHREPAFPFQPGSITEVCITFDQADLTIKLPDGHEFKFPNRLNMEAINYMAADGDFKIKCVAFE
modifications: 125I label in the receptor binding assays
growth inhibition of synchronous mouse embryo fibroblasts (cell count): 100%
